Experimental data reported in US20220153832A1 (PIONYR IMMUNOTHERAPEUTICS, published 2022).
Where a chain is given by its changes, count along the chain named.

T1: Human Macrophage Receptor with Collagenous Structure (MARCO), full length, on cells (human, UniProt Q9UEW3 1-520)
T1 construct: the cell type is named under assay; also called huMARCO; HuMARCO
T1 sequence: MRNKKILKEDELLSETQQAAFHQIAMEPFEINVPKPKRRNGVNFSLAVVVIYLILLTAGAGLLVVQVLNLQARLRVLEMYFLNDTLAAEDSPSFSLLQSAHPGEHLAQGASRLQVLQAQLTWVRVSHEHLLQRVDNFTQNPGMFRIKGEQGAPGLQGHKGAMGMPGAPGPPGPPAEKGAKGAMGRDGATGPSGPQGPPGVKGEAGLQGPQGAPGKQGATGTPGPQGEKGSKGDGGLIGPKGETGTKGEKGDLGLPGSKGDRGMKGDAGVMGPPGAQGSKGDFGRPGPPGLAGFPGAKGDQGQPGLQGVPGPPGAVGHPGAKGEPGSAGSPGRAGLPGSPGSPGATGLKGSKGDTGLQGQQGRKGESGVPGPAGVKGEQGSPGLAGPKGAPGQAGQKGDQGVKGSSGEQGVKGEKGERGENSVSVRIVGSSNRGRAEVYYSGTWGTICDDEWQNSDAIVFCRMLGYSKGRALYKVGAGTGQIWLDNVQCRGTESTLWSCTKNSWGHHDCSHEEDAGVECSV

T2: mouse MARCO (R&D biosystems), recombinant, coated in the LDL competition assay (mouse, UniProt Q60754 70-518, limits assumed)
T2 sequence (looked up): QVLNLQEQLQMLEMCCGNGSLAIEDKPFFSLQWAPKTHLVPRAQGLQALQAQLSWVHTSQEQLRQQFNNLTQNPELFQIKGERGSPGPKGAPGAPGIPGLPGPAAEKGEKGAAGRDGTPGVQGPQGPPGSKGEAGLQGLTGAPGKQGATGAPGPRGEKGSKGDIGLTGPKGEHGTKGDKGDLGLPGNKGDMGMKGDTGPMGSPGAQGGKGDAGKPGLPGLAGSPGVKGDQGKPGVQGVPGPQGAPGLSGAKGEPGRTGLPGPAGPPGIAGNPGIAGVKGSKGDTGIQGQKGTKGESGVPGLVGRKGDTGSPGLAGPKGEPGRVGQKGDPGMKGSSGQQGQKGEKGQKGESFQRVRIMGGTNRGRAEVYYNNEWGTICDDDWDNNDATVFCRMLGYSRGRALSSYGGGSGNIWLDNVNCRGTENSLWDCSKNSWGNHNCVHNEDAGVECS

B1: PI-HX-3061 (antibody, rat IgG2a)
heavy: EVQLVESGGGLVQPGSSLKLSCVASKFTFSNYGMNWIRQAPKKGLEWIALIYYNSNNKYYADSVKGRFTISRDNSKNTLYLEMNSLRSEDTAMYYCAKSLTGGSDYFDSWGQGVMVTVSSAETTAPSVYPLAPGTALKSNSMVTLGCLVKGYFPEPVTVTWNSGALSSGVHTFPAVLQSGLYTLTSSVTVPSSTWPSQTVTCNVAHPASSTKVDKKIVPRNCGGDCKPCICTGSEVSSVFIFPPKPKDVLTITLTPKVTCVVVDISQDDPEVHFSWFVDDVEVHTAQTRPPEEQFNSTFRSVSELPILHQDWLNGRTFRCKVTSAAFPSPIEKTISKPEGRTQVPHVYTMSPTKEEMTQNEVSITCMVKGFYPPDIYVEWQMNGQPQENYKNTPPTMDTDGSYFLYSKLNVKKEKWQQGNTFTCSVLHEGLHNHHTEKSLSHSP
light: DVQMTQSPSYLAASPGESVSISCKASKSIGTFLAWYQEKPEKTNKLLIYSGSTLQSGTPSRFSGSGSGTDFTLTIRNLEPEDFAVYYCQQHDEYPFTFGSGTKLEIKRADAAPTVSIFPPSTEQLATGGASVVCLMNNFYPRDISVKWKIDGTERRDGVLDSVTDQDSKDSTYSMSSTLSLTKADYESHNLYTCEVVHKTSSSPVVKSFNRNEC
notes: Parental rat hybridoma, rat IgG2a; cross reactive with human and mouse MARCO
B2: PI-3015-AB (antibody, human IgG1, kappa)
heavy: not shown
light: DIQMTQSPSSLSASVGDRVTITCRASEGISNDLAWYQQKPGKAPKLLIYAASRLQSGVPSRFSGSGSGTDYTLTISSMQPEDFATYYCQQSYKYPLTFGQGTKLEIKRTVAAPSVFIFPPSDEQLKSGTASVVCLLNNFYPREAKVQWKVDNALQSGNSQESVTEQDSKDSTYSLSSTLTLSKADYEKHKVYACEVTHQGLSSPVTKSFNRGEC
B3: PI-HX-3021 (antibody, V domains shown)
VH: QVRLVQSGTALVRPGASVRMSCTASGYSFTDYWVSWVKQSHGQSLEWIGEIYPNSGTTNFNEKFEGKATLTVDKSTSTAYMELSRLTSEDSAIYYCTGEGTFDYWGQGVMVTVSS
VL: EIVLTQSPTTMAASPGEKVTITCRPSSSLSNMHWFQQKSGTSPKPWIYDTSKLASGVPDRFSGSGSGTSYSLTISSMEAEDAATYYCLQRSSYPPTFGAGTKLELK
notes: Rat IgG2a hybridoma antibody; Not the effector dead PI-3021; also called PI-3007 (name of the recombinant form)
B4: PI-HX-3016 (antibody, rat IgG1, V domains shown)
VH: EVQLVESGGGLVKPGASLKLSCVASGFTFSDDWMNWVRQTPGKAMEWIGDIKYDGSYTNYVPSLKNRLTISRDNAKNTLYLQMTNVRSEDTATYYCTSGGVFDYWGQGVMVTVSS
VL: B3 VL with T5S, P25A, L29V, N31Y, S92G, L105V
notes: Rat IgG1 hybridoma antibody
B5: PI-HX-3031 (antibody)
heavy: QVQLKESGPGLVQPSQTLSLTCTVSGFSLTSYHVSWVRQPPGKGLEWMGAIWTGGSIAYNSLLKSRLSISRDTSKSQVFLKMNSLQTEDTATYYCARDLSDYYSSYTSFDYWGQGVMVTVSTAETTAPSVYPLAPGTALKSNSMVTLGCLVKGYFPEPVTVTWNSGALSSGVHTFPAVLQSGLYTLTSSVTVPSSTWSSQAVTCNVAHPASSTKVDKKIVPRECNPCGCTGSEVSSVFIFPPKTKDVLTITLTPKVTCVVVDISQNDPEVRFSWFIDDVEVHTAQTHAPEKQSNSTLRSVSELPIVHRDWLNGKTFKCKVNSGAFPAPIEKSISKPEGTPRGPQVYTMAPPKEEMTQSQVSITCMVKGFYPPDIYTEWKMNGQPQENYKNTPPTMDTDGSYFLYSKLNVKKETWQQGNTFTCSVLHEGLHNHHTEKSLSHSP
light: DIQMTQSPASLSTSLGETVSIECLASEGISNDLAWYQQKSGKSPQLLIYAASRLQDGVPSRFSGSGSGTRYSLKISGMQPEDEADYFCQQSYKYPLTFGSGTKLEIKRADAAPTVSIFPPSTEQLATGGASVVCLMNNFYPRDISVKWKIDGTERRDGVLDSVTDQDSKDSTYSMSSTLSLTKADYESHNLYTCEVVHKTSSSPVVKSFNRNEC
notes: Parental rat hybridoma, rat IgG2a
B6: PI-3010-AB (antibody, human IgG1, kappa)
heavy: not shown
light: DIQMTQSPASLSTSLGETVSIECLASEGISNDLAWYQQKSGKSPQLLIYAASRLQDGVPSRFSGSGSGTRYSLKISGMQPEDEADYFCQQSYKYPLTFGSGTKLEIKRTVAAPSVFIFPPSDEQLKSGTASVVCLLNNFYPREAKVQWKVDNALQSGNSQESVTEQDSKDSTYSLSSTLTLSKADYEKHKVYACEVTHQGLSSPVTKSFNRGEC

How the values were obtained:
[1] = biological target: T1, Human Macrophage Receptor with …; experiment: flow cytometry, 293T (HuMARCO)
Protocol: Supernatants were removed and cell pellets were resuspended in Ca²⁺+ and Mg²⁺+ Dulbecco's phosphate-buffered saline (D-PBS) at 1×10⁶ cells/ml. 100,000 cells/well were plated onto U-bottom 96-well plates for staining and all centrifugation steps were performed at 1500 rpm at 4° C. for 5 min and samples were kept protected from light throughout the protocol. Cells were pelleted and resuspended in 100 μl of Zombie NIR viability dye (BioLegend) prepared by diluting Zombie NIR dimethyl sulfoxide (DMSO) stock 1000-fold in D-PBS. […] Flow cytometry data were analyzed using FlowJo software (version 10.6.1) and data were processed and further analyzed in Microsoft Excel and GraphPad Prism software (version 8). Half-maximal effective concentrations (EC₅₀) were calculated based on geometric mean fluorescence intensities (gMFI). In case when the plates were not able to be analyzed on the cytometer, cells were pelleted after the washes and fixed in 100 μl of 2% paraformaldehyde (PFA), prepared by diluting the 16% (w/v) stock (Thermo Fisher) in DPBS, for 15 min at RT. […]

[2] = biological target: T1, Human Macrophage Receptor with …; experiment: cell-based competition with AF488 E. coli binding to cells expressing MARCO
Protocol: Zombie NIR viability dye (BioLegend), prepared by diluting the stock 1000-fold in D-PBS, was added to the cells and incubated for 10 min at RT in the dark. The reaction was quenched by adding 1 m of 4× Staining buffer (2% FBS in DBPS containing Ca2+), followed by centrifugation at 400×g for 5 min at 4° C. Cells were then plated in V-shaped 96 well plates at a density of 100,000 cells. A488-fluorescently labeled bacteria (E. coli from Invitrogen) was added at 10 μg/ml with the anti-human MARCO antibodies of interest for a 30 min incubation at 37 C. Plates were then washed twice followed by resuspension in 100 ul of staining buffer for acquisition on the flow cytometer (Attune NxT, Life Technologies). Flow cytometry data were analyzed using FlowJo software (version 10.6.1) and data were processed and further analyzed in Microsoft Excel and GraphPad Prism software (version 8).

[3] = biological target: T2, mouse MARCO (R&D biosystems), …; experiment: LDL competition on coated mouse MARCO (MSD), competitor biotinylated hLDL
Protocol: A high-binding, 96-well MSD plate was coated with 4 μg/ml mouse MARCO or 4 μg/ml human MARCO (R&D biosystems). After the plate was blocked with PBST and 5% BSA for an hour, titrated anti-mouse or anti-human MARCO antibodies were added to the plate and incubated for 30 minutes. Biotinylated hLDL (860 pM or 2 μg/ml) were added to the antibody, and the antibody/LDL mixture was incubated for an hour to allow the mixture to reach binding equilibrium. The plates were washed and bound biotinylated LDL was detected with Sulfo-tagged streptavidin that generates an electrocheminlumenscent signal when read buffer is added and electricity is applied to the electrodes in the MSD plate. IC50's were calculated using a 4-parameter curve fit in GraphPad Prism software.

Row | Binder | EC50 [1] [nM] | EC50 [2] [nM] | EC50 [3] [nM]
1 | B1 | 0.49 |  | 
2 | B2 |  | 0.5 | 
3 | B3 |  |  | 0.25
4 | B4 |  |  | 0.34
5 | B5 | 0.56 |  | 
6 | B6 |  | 0.44 | 
